The test concerns the target purified αvβ3 integrin (human) (UniProt P06756). Kind of test: competition ELISA on αvβ3 coated wells; competitor: biotinylated FNfn10-3JCLI4 at 800 pM; no inhibition at the highest concentration. A general note: An ELISA detects its analyte on a solid surface through an enzyme-linked reagent.

The term IC50 denotes the point on the concentration scale where inhibition reaches its midpoint. Consider “wild-type FNfn10 (FNfn10-WT), purified protein (from UniProt P02751 1538-1631)”, for which the IC50 is above 80 nM.

These data come from patent publication US20070117966A1.
